Values of other authors, collected in paper PMC2953804.

Target: Mlh1 (Saccharomyces cerevisiae) (UniProt P38920)

Question: Which Kd does the source give for Mlh1 (from UniProt P38920) here?
Answer: The Kd was 3.14 µM.
